Among the data in patent publication US20040138134A1 are % relative binding (cGMP, Biotrak EIA, peptide values, retold here.

Where no end group is shown, it is not given here.

The labels stand for the following.
B1: CNP variant SEQ ID NO:65 (peptide)
chain: CFGLKLDRIGSWSGLGC
B2: CNP variant SEQ ID NO:54 (peptide)
chain: CFGLKLDRIGAMSGLGC
B3: CNP variant SEQ ID NO:68 (peptide)
chain: CFGLKLDRIGSSSGLGC
B4: CNP variant SEQ ID NO:61 (peptide)
chain: CFGLKLDRIGSMSGQGC
B5: CNP variant SEQ ID NO:45 (peptide)
chain: CFGLKADRIGSMSGLGC
B6: CNP variant SEQ ID NO:49 (peptide)
chain: CFGLKLDKIGSMSGLGC
B7: CNP variant SEQ ID NO:26 (peptide)
chain: CFGLKLARIGSASGLGC
B8: CNP variant SEQ ID NO:44 (peptide)
chain: CFGLMLDRIGSMSGLGC
B9: CNP variant SEQ ID NO:41 (peptide)
chain: CFGIKLDRIGSMSGLGC
B10: CNP variant SEQ ID NO:30 (peptide)
chain: CMGLKLDRIGSMSGLGC
B11: CNP variant SEQ ID NO:52 (peptide)
chain: CFGLKLDRVGSMSGLGC
B12: CNP variant SEQ ID NO:42 (peptide)
chain: CFGVKLDRIGSMSGLGC
B13: CNP variant SEQ ID NO:36 (peptide)
chain: CFGLKLQRIGSMSGLGC
B14: CNP variant SEQ ID NO:64 (peptide)
chain: CFGLKLDRIGSMSGGGC
B15: CNP variant SEQ ID NO:48 (peptide)
chain: CFGLKLDHIGSMSGLGC
B16: CNP variant SEQ ID NO:47 (peptide)
chain: CFGLKVDRIGSMSGLGC
B17: CNP variant SEQ ID NO:38 (peptide)
chain: CFGLKLIRIGSMSGLGC
B18: CNP variant SEQ ID NO:35 (peptide)
chain: CFGLKLERIGSMSGLGC
B19: CNP variant SEQ ID NO:31 (peptide)
chain: CWGLKLDRIGSMSGLGC
B20: CNP variant SEQ ID NO:57 (peptide)
chain: CFGLKLDRIGNMSGLGC
B21: CNP variant SEQ ID NO:24 (peptide)
chain: CAGLKLARIGSMSGLGC
B22: CNP variant SEQ ID NO:39 (peptide)
chain: CFGLKLMRIGSMSGLGC
B23: CNP variant SEQ ID NO:51 (peptide)
chain: CFGLKLDRLGSMSGLGC
B24: CNP variant SEQ ID NO:28 (peptide)
chain: CIGLKLDRIGSMSGLGC
B25: CNP variant SEQ ID NO:43 (peptide)
chain: CFGLLLDRIGSMSGLGC
B26: CNP variant SEQ ID NO:27 (peptide)
chain: CAGLKLARIGSASGLGC
B27: CNP variant SEQ ID NO:32 (peptide)
chain: CVGLKLDRIGSMSGLGC
B28: CNP variant SEQ ID NO:29 (peptide)
chain: CLGLKLDRIGSMSGLGC
B29: CNP variant SEQ ID NO:34 (peptide)
chain: CTGLKLDRIGSMSGLGC
B30: CNP variant SEQ ID NO:56 (peptide)
chain: CFGLKLDRIGTMSGLGC
B31: CNP variant SEQ ID NO:66 (peptide)
chain: CFGLKLDRIGSHSGLGC
B32: CNP variant SEQ ID NO:60 (peptide)
chain: CFGLKLDRIGSMSKLGC
B33: CNP variant SEQ ID NO:40 (peptide)
chain: CFGAKLDRIGSMSGLGC
B34: CNP variant SEQ ID NO:69 (peptide)
chain: CFGLKLDRIGSGSGLGC
B35: CNP variant SEQ ID NO:50 (peptide)
chain: CFGLKLDQIGSMSGLGC
B36: CNP variant SEQ ID NO:58 (peptide)
chain: CFGLKLDRIGSMSALGC
B37: CNP variant SEQ ID NO:55 (peptide)
chain: CFGLKLDRIGGMSGLGC
B38: CNP variant SEQ ID NO:33 (peptide)
chain: CHGLKLDRIGSMSGLGC
B39: CNP variant SEQ ID NO:63 (peptide)
chain: CFGLKLDRIGSMSGAGC
B40: CNP variant SEQ ID NO:67 (peptide)
chain: CFGLKLDRIGSKSGLGC
B41: CNP variant SEQ ID NO:46 (peptide)
chain: CFGLKIDRIGSMSGLGC
B42: CNP variant SEQ ID NO:53 (peptide)
chain: CFGLKLDRTGSMSGLGC
B43: CNP variant SEQ ID NO:37 (peptide)
chain: CFGLKLNRIGSMSGLGC
B44: CNP variant SEQ ID NO:62 (peptide)
chain: CFGLKLDRIGSMSGMGC
B45: CNP variant SEQ ID NO:59 (peptide)
chain: CFGLKLDRIGSMSLLGC
B46: CNP variant SEQ ID NO:17 (peptide)
chain: CFGLKLDRIGAMC
modifications: ends and bridges not checked; cysteine pairing not given here
B47: CNP variant SEQ ID NO:20 (peptide)
chain: CHFGLKLDRIGSC
B48: CNP variant SEQ ID NO:18 (peptide)
chain: CFGLKLDRIGSQC
B49: CNP 1-22 (native human CNP, 22-mer) (peptide)
chain: GLSKGCFGLKLDRIGSMSGLGC
B50: CNP variant SEQ ID NO:6 (peptide)
chain: CAGLKLDRIGSMSGLGC
B51: CNP variant SEQ ID NO:21 (peptide)
chain: CFGLKLDRIGSC
B52: CNP variant SEQ ID NO:16 (peptide)
chain: CFGLKLDRIGSMC
B53: CNP variant SEQ ID NO:19 (peptide)
chain: CFGLKLDRIGAQC
B54: CNP variant SEQ ID NO:15 (peptide)
chain: CFGLKLDRIGAQSC
B55: CNP variant SEQ ID NO:13 (peptide)
chain: CHFGLKLDRIGAQSC
B56: CNP variant SEQ ID NO:22 (peptide)
chain: CFGLKLDRIGC
B57: CNP variant SEQ ID NO:23 (peptide)
chain: CHFGLKLDRIC
B58: CNP variant SEQ ID NO:14 (peptide)
chain: CFGLKLDRIGSMSC

The target in the first experiment is natriuretic peptide receptor on C3H10T1/2 cells. The experiment is described as follows: cell-based or functional assay.
On to B1, for which the % relative binding (cGMP, Biotrak EIA, peptide at 10^-6 M) was 66.5%.

For the molecule B2, the % relative binding (cGMP, Biotrak EIA, peptide at 10^-6 M) came out at 54.5%. In the case of B3, the % relative binding (cGMP, Biotrak EIA, peptide at 10^-6 M) was 62.5%. The same measure, in the same setting: as for B4, the figure is -3.47%; as for B5, 11.3%; as for B6, 21.5%. Same read-out and setting: for B7 the value was 5.75%; for B8, 5.42%. B9: the % relative binding (cGMP, Biotrak EIA, peptide at 10^-6 M) turned out to be 47.4%. B10: the % relative binding (cGMP, Biotrak EIA, peptide at 10^-6 M) is -1.34%. Regarding B11, the % relative binding (cGMP, Biotrak EIA, peptide at 10^-6 M) is 27.1%. As for B12, the % relative binding (cGMP, Biotrak EIA, peptide at 10^-6 M) is 64.2%. On to B13, for which the % relative binding (cGMP, Biotrak EIA, peptide at 10^-6 M) is -17.1%.

In the case of B14, the % relative binding (cGMP, Biotrak EIA, peptide at 10^-6 M) is -10.1%. With B15, the % relative binding (cGMP, Biotrak EIA, peptide at 10^-6 M) was found to be 13.5%.

For the molecule B16, the % relative binding (cGMP, Biotrak EIA, peptide at 10^-6 M) is 66.7%. As to B17, the % relative binding (cGMP, Biotrak EIA, peptide at 10^-6 M) turned out to be 7.23%. B18: the % relative binding (cGMP, Biotrak EIA, peptide at 10^-6 M) came out at 9.45%. For the molecule B19, the % relative binding (cGMP, Biotrak EIA, peptide at 10^-6 M) was -10.8%.

As to B20, the % relative binding (cGMP, Biotrak EIA, peptide at 10^-6 M) was found to be 27.4%. The same measure, in the same setting: as for B21, the figure is -5.85%. Take B22: the % relative binding (cGMP, Biotrak EIA, peptide at 10^-6 M) stood at 7.78%.

In the case of B23, the % relative binding (cGMP, Biotrak EIA, peptide at 10^-6 M) is 14.2%. With B24, the % relative binding (cGMP, Biotrak EIA, peptide at 10^-6 M) is 13.9%. For B25, the % relative binding (cGMP, Biotrak EIA, peptide at 10^-6 M) was found to be 29.7%. Turning to B26, the % relative binding (cGMP, Biotrak EIA, peptide at 10^-6 M) is -10.4%. As to B27, the % relative binding (cGMP, Biotrak EIA, peptide at 10^-6 M) is 5.74%. B28: the % relative binding (cGMP, Biotrak EIA, peptide at 10^-6 M) was found to be 6.25%. On the same count and under the same terms, as for B29, the figure is -6.9%; as for B30, 74.1%.

Consider B31, for which the % relative binding (cGMP, Biotrak EIA, peptide at 10^-6 M) worked out at 66.2%. Take B32: the % relative binding (cGMP, Biotrak EIA, peptide at 10^-6 M) turned out to be 49.2%. On to B33, for which the % relative binding (cGMP, Biotrak EIA, peptide at 10^-6 M) is 20.2%.

Consider B34, for which the % relative binding (cGMP, Biotrak EIA, peptide at 10^-6 M) was determined as 62.1%.

For B35, the % relative binding (cGMP, Biotrak EIA, peptide at 10^-6 M) is 12%. Consider B36, for which the % relative binding (cGMP, Biotrak EIA, peptide at 10^-6 M) turned out to be 53.6%. For B37, the % relative binding (cGMP, Biotrak EIA, peptide at 10^-6 M) stood at 27.8%. In the case of B38, the % relative binding (cGMP, Biotrak EIA, peptide at 10^-6 M) stood at 5.7%.

On to B39, for which the % relative binding (cGMP, Biotrak EIA, peptide at 10^-6 M) was -1.11%. As for B40, the % relative binding (cGMP, Biotrak EIA, peptide at 10^-6 M) stood at 66.9%. Consider B41, for which the % relative binding (cGMP, Biotrak EIA, peptide at 10^-6 M) came to 88.1%. B42: the % relative binding (cGMP, Biotrak EIA, peptide at 10^-6 M) was -1.95%. For B43, the % relative binding (cGMP, Biotrak EIA, peptide at 10^-6 M) is 17.2%.

Regarding B44, the % relative binding (cGMP, Biotrak EIA, peptide at 10^-6 M) is 51.3%. As for B45, the % relative binding (cGMP, Biotrak EIA, peptide at 10^-6 M) was 15.3%.

The target is the same in a further experiment. The experiment is described as follows: cell-based or functional assay. The source holds these as a separate data set.
In the case of B46, the % relative binding (cGMP, Biotrak EIA, peptide at 10^-6 M) amounted to 3.4%. With B47, the % relative binding (cGMP, Biotrak EIA, peptide at 10^-6 M) was 11.9%. B48: the % relative binding (cGMP, Biotrak EIA, peptide at 10^-6 M) was 11.8%. In the case of B49, the % relative binding (cGMP, Biotrak EIA, peptide at 10^-6 M) was 100%. Turning to B50, the % relative binding (cGMP, Biotrak EIA, peptide at 10^-6 M) came to 43.8%. Regarding B51, the % relative binding (cGMP, Biotrak EIA, peptide at 10^-6 M) came to 22.7%. As for B52, the % relative binding (cGMP, Biotrak EIA, peptide at 10^-6 M) is 17.3%. On the same count and under the same terms, for B53 the value was 3.8%; for B54, 20.6%; for B55, 26.5%.

On to B56, for which the % relative binding (cGMP, Biotrak EIA, peptide at 10^-6 M) is 4.2%.

Consider B57, for which the % relative binding (cGMP, Biotrak EIA, peptide at 10^-6 M) came out at 3.8%. On to B58, for which the % relative binding (cGMP, Biotrak EIA, peptide at 10^-6 M) came to 29.9%.
